Test results from publication PMC5431922.

Key:
[1] = biological target: 20.8-kDa tegumental-allergen-like protein from Clonorchis sinensis (CsTAL3), full-length (aa 1-184) (Clonorchis sinensis); test: SAXS; 20 °C, 20 mM Tris-HCl pH 7.5, 100 mM NaCl, without or with 5 mM CaCl2; 1.9 to 5.2 mg/mL; molecular mass estimated against standard proteins
[2] = biological target: 20.8-kDa tegumental-allergen-like protein from Clonorchis sinensis (CsTAL3), full-length (aa 1-184) (Clonorchis sinensis); test: AUC; sedimentation velocity, 20 °C, 2.5 and 0.6 mg/mL, 50 x 10^3 rpm, interference optics, c(s) analysis; without CaCl2 and with 5 mM CaCl2

## 20.8-kDa tegumental-allergen-like protein from Clonorchis sinensis (CsTAL3), full-length (aa 1-184) (natural protein)
[1]
  stoichiometry N: 2
[2]
  stoichiometry N: 2
